Results reported in PMC314469, “Protein Interaction Networks by Proteome Peptide Scanning” (PLoS Biology, 2004).

T1: Boi1 SH3 (BOI1_YEAST), P38041
T1 chain: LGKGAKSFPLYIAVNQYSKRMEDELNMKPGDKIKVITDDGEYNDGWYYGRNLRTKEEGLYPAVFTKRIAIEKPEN

T2: Boi2 SH3 (BOI2_YEAST), P39969
T2 chain: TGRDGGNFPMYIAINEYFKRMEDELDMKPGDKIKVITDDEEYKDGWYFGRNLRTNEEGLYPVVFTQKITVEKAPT

T3: Myo5 SH3 (MYO5_YEAST), Q04439
T3 chain: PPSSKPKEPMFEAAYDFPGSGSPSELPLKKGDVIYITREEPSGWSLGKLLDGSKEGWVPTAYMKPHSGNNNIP

T4: Rvs167 SH3 (RV167_YEAST), P39743
T4 chain: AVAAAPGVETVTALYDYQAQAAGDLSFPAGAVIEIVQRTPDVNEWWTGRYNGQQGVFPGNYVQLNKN

T5: Yfr024 SH3 (LSB3_YEAST), P43603
T5 chain: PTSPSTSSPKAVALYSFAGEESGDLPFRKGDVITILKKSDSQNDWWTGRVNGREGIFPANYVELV

T6: Yhr016c SH3 (YSC84_YEAST), P32793
T6 chain: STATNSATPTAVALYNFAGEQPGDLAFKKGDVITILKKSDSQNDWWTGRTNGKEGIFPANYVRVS


Molecular target: T1, Boi1 SH3 (BOI1_YEAST), P38041
Assay: SPOT array

normalised SPOT signal, Boehringer light units (BLU); mean over the file's lines of this peptide	Binder
418	AFYYKYYPVEPNSN [YFR020W 150-163]
107	AALVKFVPSKPMSV [YBR118W 397-410]
1440	AGPRKYIPRAPAQG [YGL063W 287-300]
117	AKINKVSPEDPWVL [YDL245C 273-286]
1420	AKDYRFNPAIPLRI [YLR073C 11-24]
33.8	AGQERFAPLAPMYY [YNL093W 69-82]
62.8	AGHIKTHPNSPTPG [YKL064W 452-465]
466	AISKKLGPDTPIKV [YOR219C 612-625]

Molecular target: T2, Boi2 SH3 (BOI2_YEAST), P39969
Assay: SPOT array

normalised SPOT signal, Boehringer light units (BLU); mean over the file's lines of this peptide	Binder
52.6	AFYYKYYPVEPNSN [YFR020W 150-163]
79.2	AALVKFVPSKPMSV [YBR118W 397-410]
39.1	AGPRKYIPRAPAQG [YGL063W 287-300]
12.9	AKINKVSPEDPWVL [YDL245C 273-286]
30.5	AKDYRFNPAIPLRI [YLR073C 11-24]
30.4	AGQERFAPLAPMYY [YNL093W 69-82]
9	AGHIKTHPNSPTPG [YKL064W 452-465]
3.3	AISKKLGPDTPIKV [YOR219C 612-625]

Molecular target: T3, Myo5 SH3 (MYO5_YEAST), Q04439
Assay: SPOT array

normalised SPOT signal, Boehringer light units (BLU); mean over the file's lines of this peptide	Binder
188	AFYYKYYPVEPNSN [YFR020W 150-163]
281	AALVKFVPSKPMSV [YBR118W 397-410]
195	AGPRKYIPRAPAQG [YGL063W 287-300]
121	AKINKVSPEDPWVL [YDL245C 273-286]
304	AKDYRFNPAIPLRI [YLR073C 11-24]
101	AGQERFAPLAPMYY [YNL093W 69-82]
60.3	AGHIKTHPNSPTPG [YKL064W 452-465]
176	AISKKLGPDTPIKV [YOR219C 612-625]

Molecular target: T4, Rvs167 SH3 (RV167_YEAST), P39743
Assay: SPOT array

normalised SPOT signal, Boehringer light units (BLU); mean over the file's lines of this peptide	Binder
25.5	AFYYKYYPVEPNSN [YFR020W 150-163]
106	AALVKFVPSKPMSV [YBR118W 397-410]
94.4	AGPRKYIPRAPAQG [YGL063W 287-300]
39	AKINKVSPEDPWVL [YDL245C 273-286]
534	AKDYRFNPAIPLRI [YLR073C 11-24]
102	AGQERFAPLAPMYY [YNL093W 69-82]
21.2	AGHIKTHPNSPTPG [YKL064W 452-465]
14.9	AISKKLGPDTPIKV [YOR219C 612-625]

molecular target: Sho1 SH3 (SHO1_YEAST), P40073; assay: SPOT array
Sequence (P40073 295-366): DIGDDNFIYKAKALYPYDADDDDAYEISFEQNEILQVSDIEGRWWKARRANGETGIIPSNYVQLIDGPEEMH

normalised SPOT signal, Boehringer light units (BLU); mean over the file's lines of this peptide	Binder
51.5	AFYYKYYPVEPNSN [YFR020W 150-163]
32.5	AALVKFVPSKPMSV [YBR118W 397-410]
63	AGPRKYIPRAPAQG [YGL063W 287-300]
23.6	AKINKVSPEDPWVL [YDL245C 273-286]
208	AKDYRFNPAIPLRI [YLR073C 11-24]
23.3	AGQERFAPLAPMYY [YNL093W 69-82]
163	AGHIKTHPNSPTPG [YKL064W 452-465]
18.4	AISKKLGPDTPIKV [YOR219C 612-625]

Molecular target: T5, Yfr024 SH3 (LSB3_YEAST), P43603
Assay: SPOT array

normalised SPOT signal, Boehringer light units (BLU); mean over the file's lines of this peptide	Binder
115	AFYYKYYPVEPNSN [YFR020W 150-163]
184	AALVKFVPSKPMSV [YBR118W 397-410]
233	AGPRKYIPRAPAQG [YGL063W 287-300]
14.9	AKINKVSPEDPWVL [YDL245C 273-286]
1400	AKDYRFNPAIPLRI [YLR073C 11-24]
98.8	AGQERFAPLAPMYY [YNL093W 69-82]
0	AGHIKTHPNSPTPG [YKL064W 452-465]
48.8	AISKKLGPDTPIKV [YOR219C 612-625]

Molecular target: T6, Yhr016c SH3 (YSC84_YEAST), P32793
Assay: SPOT array

normalised SPOT signal, Boehringer light units (BLU); mean over the file's lines of this peptide	Binder
74.6	AFYYKYYPVEPNSN [YFR020W 150-163]
55.1	AALVKFVPSKPMSV [YBR118W 397-410]
45.1	AGPRKYIPRAPAQG [YGL063W 287-300]
12.2	AKINKVSPEDPWVL [YDL245C 273-286]
559	AKDYRFNPAIPLRI [YLR073C 11-24]
15.9	AGQERFAPLAPMYY [YNL093W 69-82]
14.3	AGHIKTHPNSPTPG [YKL064W 452-465]
7	AISKKLGPDTPIKV [YOR219C 612-625]
